Assay: soluble on expression in E. coli; label from the status in PepcDB or PDB records

| Sequence | soluble on expression in E. coli |
| --- | --- |
| AAIDPNRIVALEWLPVELLLALGIVPYGVADTINYRLWVSEPPLPDSVIDVGLRTEPNLELLTEMKPSFMVWSAGYGPSPEMLARIAPGRGFNFSDGKQPLAMARKSLTEMADLLNLQSAAETHLAQYEDFIRSMKPRFVKRGARPLLLTTLIDPRHMLVFGPNSLFQEILDEYGIPNAWQGETNFWGSTAVSIDRLAAYKDVDVLCFDHDNSKDMDALMATPLWQAMPFVRAGRFQRVPAVWFYGATLSAMHFVRVLDNAIGGKA | soluble |
| AAKVHVDIEADSPFIKSLQKAFPSFEVESLQVTPNDHANARAFSHLATKLIEQETDKDLILDIGSAPSRRMMSTHKYHCVCPMRSAEDPERLDSYAKKLAAASGKVLDREIAGKITDLQTVMATPDAESPTFCLHTDVTCRTAAEVAVYQDVYAVHAPTSLYHQAMKGVRTAYWIGFDTTPFMFDALAGAYPTYATNWADEQVLQARNIGLCAASLTEGRLGKLSILRKKQLKPCDTVMFSVGSTLYTESRKLLRSWHLPSVFHLKGKQSFTCRCDTIVSCEGYVVKKITMCPGLYGKTVGYAVTYHAEGFLVCKTTDTVKGERVSFPVCTYVPSTICDQMTGILATDVTPEDAQKLLVGLNQRIVVNGRTQRNTNTMKNYLLPIVAVAFSKWAREYKADLDDEKPLGVRERSLTCCCLWAFKTRKMHTMYKKPDTQTIVKVPSEFNSFVIPSLWSTGLAIPVRSRIKMLLAKKTKRELIPVLDASSARDAEQEEKERLEAELTREALPPLVPIAPAETGVVDVDVEELEYHAGA | not soluble |
| AAPYRCPLCRAGCPSLASMQAHMRGHS | soluble |
| AAWLQRKQFVSAGQEVAARLNTLGAELTQSRNDMREALALAQAQSGKVAELEGKVREAQSQYSALQQALQNLNDGASDEMLANDIERLITIASQQLRLAGNVSNAIVALETAQARLARADRPRFASLQQSINGDLDRLRAVGVVDIAAQSARIDRLVALVGRAPLLVPDAAAPGVTAVPQANEAVPASVDPGADLPADAAWWQRWQAEIASWPGRAGSALAHELGDLIRVQRVDQPTALLLSPEQAGQLRSTLRQRLLTAQLSMLMRQPAVWKSELDAVAATLAQYFDGKAPDTVAALALARELGQVEIAVRVPDVADSLNGIAALRAAGFNADG | not soluble |
| ACQIFVRNLPFDFTWKMLKDKFNECGHVLYADIKMENGKSKGCGVVKFESPEVAERACRMMNGMKLSGREIDVRIDRNA | soluble |
| ADPDTGVDTGAPYWTRPERMDKKLLAVPAANTVRFRCPAAGNPTPSISWLKNGREFRGEHRIGGIKLRHQQWSLVMESVVPSDRGNYTCVVENKFGSIRQTYTLDVLERSPHRPILQAGLPANQTAVLGSDVEFHCKVYSDAQPHIQWLKHVEVNGSKVGPDGTPYVTVLKSWISESVEADVRLRLANVSERDGGEYLCRATNFIGVAEKAFWLSVHGPRAAEEELVEADEAGSVHHHHHH | soluble |
| ADQVDPQLKFAMQRDLGIFPTQLPQYLQTEKLARTQAAAIEREFGAQFAGSWIERNEDGSFKLVAATSGARKSSTLGGVEVRNVRYSLKQLQSAMEQLDAGANARVKGVSKPLDGVQSWYVDPRSNAVVVKVDDGATDAGVDFVALSGADSAQVRIESSPGKLQTT | soluble |
| AEIKNVILMIGDGMGPQQVGLLETYANQAPNSIYKGNKTAIYQLAQEGVIGSSLTHPEDAIVVDSACSATMLATGIYSSSEVIGIDSQGNHVETVLEKAKKAGKATGLVSDTRLTHATPASFAAHQPHRSLENQIASDMLATGADVMLSGGLRHWIPKSTNDKGETYKQLEKLTQGDVYLKSKRKDDRNLLTEAEKDGYQLAFNRNMLDDAKGDKLLGLFAYSGMDDGIAYSNKKKSGERTQPSLKEMTQKALNILSKDEDGFFLMVEGGQIDWAGHSNDAGTMLHELLKFDEAIQTVYEWAKDREDTIVIVTADHETGSFGFSYSSNDLPKPQKRSGEAFADRDYAPNFNFGAFDILDGLYNQKQSYYGMISEFQKLDKSLQTPEKLAEIVNKNSEFPITAEQAKNVLASKPNPYRLAQHKYLSAEEVPAINDFDAFFPYNDRGNLLAREQATGQNIVWGTGTHTHTPVNVFAWGPAEKILPVSKIMHHSELGEYIKQQVN | soluble |
| AEKQVTAGRHTYALPELFLVMATQNPIEQEGTYPLPEAQLDRFLLHLEVDYPDAEHELAILRINRGEAKGECSIERPSLSQQDIFTARQEVLDIHMAEAIEQYIVRLVMATRRASEYDSELDKWLAMGVSPRATIALDRCARAHAWLAGRDFVSPEDVQAMAYPVLRHRLLLSYHAQAEGVTSNQVIDKLLNLVGSA | not soluble |
| AFLNKHFAKKNHNISVDELSHALELTDKAELTEENNILEGIIRFGGETAKEVMTSRLDVVDLDIRTPFKDVIQCIIDNAYSRIPIYSGTRDNIKGVLYIKDLLPHLNKGDNFRWQSLIRPAYFVPETKMIDDLLRDFQANKIHIAIVVDEFGGTSGIVTMEDIIEEIVGEIHDEYDD | soluble |
| AFSGTWQVYAQENYEEFLKALALPEDLIKMARDIKPIVEIQQKGDDFVVTSKTPRQTVTNSFTLGKEADITTMDGKKLKCTVHLANGKLVTKSEKFSHEQEVKGNEMVETITFGGVTLIRRSKRV | soluble |
| AFTGKFEMESEKNYDEFMKLLGISSDVIEKARNFKIVTEVQQDGQDFTWSQHYSGGHTMTNKFTVGKESNIQTMGGKTFKATVQMEGGKLVVNFPNYHQTSEIVGDKLVEVSTIGGVTYERVSKRLA | soluble |
| AFTGKYEIESEKNYDEFMKRLALPSDAIDKARNLKIISEVKQDGQNFTWSQQYPGGHSITNTFTIGKECDIETIGGKKFKATVQMEGGKVVVNSPNYHHTAEIVDGKLVEVSTVGGVSYERVSKKLA | soluble |
| AGMELVGWLVDKGITSEKQWIQEDQASYISFNAASNSRSQIKAALDNAGKIMSLTKTAPDYLVGQQPVEDISSNRIYKILELNGYDPQYAASVFLGWATKKFGKRNTIWLFGPATTGKTNIAEAIAHTVPFYGCVNWTNENFPFNDCVDKMVIWWEEGKMTAKVVESAKAILGGSKVRVDQKCKSSAQIDPTPVIVTSNTNMCAVIDGNSTTFEHQQPLQDRMFKFELTRRLDHDFGKVTKQEVKDFFRWAKDHVVEVEHEFYVKKGG | soluble |
| AHHHHHHGSFEISIYLPTEIVFGPGKLEMLPKLVKKHGLSGKALIVTGRRSTKETGVLYRVQELLKQAGVESIVFDKIIPNPISTHVDEGAEIARKENVSFVVGLGGGSAIDSAKAIAMTAASGGKYWDYVPAVGGGKKPTGALPIVAIPTTHGTGTEADPYAVITNPETKEKQGIGYDVLFPKFSIVDPELMLTLPKDQTVYTSMDAFYHSIEAFLNVRANPYSDVLALDSMRRIVTYLPLAYENLRNLEARTQLAWASTEAGITETVTGVVANHALEHGLSGFYPEVPHGLGLCILGPYLFEYILDYAYEKLAIVGREVFGVYEPNDRKAAELAIKKLRDFQSLFGVNKKLRELGVKEEDIPEMARTAYRMMKPVIEATPGDLKVEDLEEIYRRAY | soluble |
| AHHHHHHGSGRFVVWPSELDSRLSRKYGRIVPRSIAVESPRVEEIVRAAEELKFKVIRVEEDKLNPRLSGIDEELRTFGMIVLESPYGKSKSLKLIAQKIREFRRRSA | not soluble |
| AHHHHHHGSIIAITGTPGVGKTTVARKLAEKLGCKYVNLRDFALEKGIGEVKGDELEVEVDELAYFVEKEFKGKNVVLDGHLSHLMPADLVIVLRAHPKTIAERLKERGYSKDKIGENVEAELVDVILIEALDEHENVIEVDTTGKTPEEVVNEILNLINSGIKRRVGIVDWTKVYEEIIPYLRLGGD | not soluble |
| AHHHHHHGSIVPALIGSLPRPIGLAKKLEQYYIGRLDERKLEEAYREYTRRAFEKLRDAKIKVITDGLYRWDDIFNPFIRFIDGIEVNGLFKFYENNFFYRSPVVRGEIALKENPIPEWISIAQEIKEDVYPEATLKAVLPGPVTLAYHSINEYYKTLTDLAEAYAQVIGELIKELDVKIVELQEPSLAAEISEATKNIEDRVDKEVAKNIIEDLGRIKKLWVVTYFGTPQVLPEGVILNVDLIEGSVPEEYSGEIGLGIVDARTTKMERADRLRDKIRKYLAKFETIYVTPNTLLDFLPESVAWKKLRLLGRLGGE | not soluble |
| AHHHHHHGSQHPRKIYFVDTSFLTFLSVKFSKNMERLMENTVFIELLRRGKGVNYALGKNWGIDFVLLIKVSYDVSDEGTLRCEVNALRKVSREFDFKNALLITWNSKRRIEREEL | soluble |
| AHHHHHHGSRFLIRLVPEDKDRAFKVPYNHQYYLQGLIYNAIKSSNPKLATYLHEVKGPKLFTYSLFMAEKREHPKGLPYFLGYKKGFFYFSTCVPEIAEALVNGLLMNPEVRLWDERFYLHEIKVLREPKKFNGSTFVTLSPIAVTVVRKGKSYDVPPMEKEFYSIIKDDLQDKYVMAYGDKPPSEFEMEVLIAKPKRFRIKPGIYQTAWHLVFRAYGNDDLLKVGYEVGFGEKNSLGFGMVKVEGNKTTKEAEEQEKITFNSREELKTGV | not soluble |
| AHHHHHHGSSNIVKGIVKWVEGEQFIGGIEGENCSVILGEGGISPMKLLLLSVAGCTAYDVVMILRKMREPIRGLRVEIEGVRREEHPRVYKEVTIHYKIYGKVDEKKARRAIELSQEKYCSASAHLKLGGTIVRYTLEIFDDEPPSHAEG | soluble |
| AIAASSDVLRQPDKNARPLALSGHVGFDSLPDQLVNKSTSQGFCFNILCIGETGIGKSTLMDTLFNTNFENFESSHFEPKVKLRAQTYDLQESNVRLKLTVVNTVGFGDQMNKQESYQHIVDYIDTQFESYLQEELKIKRSLHNYHDSRIHACLYFIAPSGHSLKSLDLVTMKKLDSKVNIIPVIAKADTISKSELHKFKIKIMSELVSNGVQIYQFPIDDETVAKINTAMNGHLPFAVVGSTEEVNIGNKMVKARQYPWGVVQVENENHCDFVKLREMLICVNMEDLREQTHTRHYELYRRCKLEEMGFKDTDPECKPVSLQQTYEAKRQEFLGELQRREEEMRQTFVQRVKEKEAELKDAERELQGKFEQLKRLHADEKSKLEEKRRSLEEEMSVFSKRKAATELLQAQSFNTSTNNKKDKDRKNSGFM | soluble |
| AIAATSELSCEVSEENCERREAFWAEWKDLTLSTRPEEGCSLHEEDTQRHETYHQQGQCQVLVQRSPWLMMRMGILGRGLQEYQLPYQRVLPLPIFTPAKMGATKEEREDTPIQLQELLALETALGGQCVDRQEVAEITKQLPPVVPVSKPGALRRSLSRSMSQEAQRG | soluble |
| AIADEVKECLRDFPKEARELYLNDAVPYLDEPLSPLQFYRDWIGPNKPCIIRNAFNDWPALSKWNPTYLREKVGSKVISVAVTPNGFADAVNGNRFVMPEERQMSFSSLLDIVEGKIKSSAVFYVQKQCSNLMEEIPELTGDVQTHIPWMSEALGKLPDAVNFWLGEESAVTSMHKDHYENLYCVISGQKEFILLPPTDRPFIPYELYQPATYRQKDDGTFEIVDEENSPKVPWIPLDPLKPDFERFPSYRHAKALHCTVKAGEMLYLPSLWFHHVRQSHGCIAVNFWYDMEYDIKYNYFQLVEALTNAVGSL | soluble |
| AIADIEVDIIEFKVPLENNKTIFIWDIQPTFTEAYIYESLWSVYSAFGDLYLLKVCPNATVAEPGFYALVKFYSSAQASKAQRATDKQCLFQSSPLKVRLSTKQNLSFYSSKPLCLSKCHNLANHYLGFGGWTTRIVTLKDLSNCVDAGCQEETGDQGVLLKYGCIMELSFPHHGMSCQGVGVAEEVLDSDQDPEEKLRKRGALMKRAKDKAMEVAFEKVLLLILGNGKVAIEIKIDPDEIVPEENSERVIKVNDISWTHIESADSNAEEDFLWDLTEDLPY | soluble |

— the DeepSol protein solubility set
